From patent publication US20180120314 come the findings set out here.

The target in data set [1] is T1, Methyl Red (MR)-AAPV-NBD-UBI29-41.
T1 chain: AAPVKTGRAKRRMQYNRR

For data set [2], the target named is TAMRA-AAPV-NBD-PMX.

B1: human neutrophil elastase (HNE) (protein)
chain: IVGGRRARPHAWPFMVSLQLRGGHFCGATLIAPNFVMSAAHCVANVNVRAVRVVLGAHNLSRREPTRQVFAVQRIFENGYDPVNLLNDIVILQLNGSATINANVQVAQLPAQGRRLGNGVQCLAMGWGLLGRNRGIASVLQELNVTVVTSLCRRSNVCTLVRGRQAGVCFGDSGSPLVCNGLIHGIASFVRGGCASGLYPDAFAPVAQFVNWIDSIIQ
For B1, in data set [1], the “bacterial labelling (NBD fluorescence, confocal microscopy) after cleavage of the probe in a co-culture of bacteria and neutrophils” value was “These images confirm the ability of the probe to be cleaved by neutrophil derived HNE and to label bacteria”. For the same protein, in data set [2], the “bacterial labelling by NBD fluorescence (confocal microscopy) after cleavage of the probe” value is given as “Once the probe has been cleaved by elastase, the bacteria are labelled by the probe element due to the fluorescence of NBD”; the “fluorescence of the cleaved TAMRA compound (spectrophotometer, ex 525 nm, Em 580 nm)” value was “the fluorescence of the cleaved TAMRA compound increases in an elastase dependent manner and are inhibited with an elastase inhibitor such as sivelestat”.
